We go through four molecules from publication PMC12316515, “PIF4‐dependent 2‐hydroxymelatonin and 3‐hydroxymelatonin biosynthesis is involved in skotomorphogenic seedling growth in Arabidopsis thaliana”.

Data set [1] addresses T1, Trx-PIF4 (Arabidopsis thaliana, UniProt Q8W2F3 1-430).
T1 sequence: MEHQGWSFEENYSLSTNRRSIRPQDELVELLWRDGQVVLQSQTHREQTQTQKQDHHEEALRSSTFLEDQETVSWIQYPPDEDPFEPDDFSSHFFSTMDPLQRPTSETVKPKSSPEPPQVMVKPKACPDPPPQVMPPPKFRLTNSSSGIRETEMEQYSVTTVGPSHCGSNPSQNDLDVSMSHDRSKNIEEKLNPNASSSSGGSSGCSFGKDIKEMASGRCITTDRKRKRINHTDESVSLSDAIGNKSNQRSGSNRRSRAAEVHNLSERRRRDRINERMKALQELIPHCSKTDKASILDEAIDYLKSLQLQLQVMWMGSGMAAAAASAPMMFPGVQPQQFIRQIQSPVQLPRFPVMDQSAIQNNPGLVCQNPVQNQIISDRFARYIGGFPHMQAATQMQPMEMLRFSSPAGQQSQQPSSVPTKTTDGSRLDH
The experiment in a line: EMSA; LightShift Chemiluminescent EMSA Kit, 100 fmol biotin-labeled DNA, 20 min at room temperature, native 6% PAGE in 0.5x TBE; binding buffer, salt and pH not stated. The conditions noted are these: protein: recombinant; tags: N-terminal Trx (pET32b); label: 3' biotin.

Substrate in the data set “purified protein”: COc1ccc2[nH]cc(CCNC(C)=O)c2c1
The experiment in a line: purified protein. The conditions noted are these: pH 8.0, GST fusion protein, substrate not named beside the value, implied by M2H activity.

For data set [2], the target named is T1, Trx-PIF4. The experiment in a line: EMSA; greatest binding of the probes; LightShift Chemiluminescent EMSA Kit, 100 fmol biotin-labeled DNA, 20 min at room temperature, native 6% PAGE in 0.5x TBE; binding buffer, salt and pH not stated. The conditions noted are these: protein: recombinant; tags: N-terminal Trx (pET32b); label: 3' biotin.

B1: M2H E2 (dsDNA)
DNA 1: GATGACTATTTTCATTTGATAATATATCCA
DNA 2: TGGATATATTATCAAATGAAAATAGTCATC
Consider B1, for which the binding result in the data set with Trx-PIF4 [1] is recorded as “binds”.

B2: AtM2H (Arabidopsis melatonin 2-hydroxylase) (Arabidopsis thaliana) (protein)
chain: MEETNKSVVNDYFTSAMELTESGDPHVPTRYILPPSQRPMLGPSIGTSTINLPVIDLSFLHDPLLRLCVIHEIELACKGFGFFQVINHGISSAVVKDAQDSATRFFDLPADEKMHLVSDNFQEPVRYGTSINHSTDRVHYWRDFIKHYSHPLSNWINLWPSNPPCYKEKVGKYAEATHVLHKQLIEAISESLGLEKNYLQEEIEEGSQVMAVNCYPACPEPEIALGMPPHSDYGSLTILLQSSEGLQIKDCNNNWVCVPYIEGALIVQLGDQVEVMSNGIYKSVVHRVTVNKDYKRLSFASLHSLPMHKKISPATQLVNENKPAAYGEFSFNDFLDYISRNDITQKRFIDTLRKKNL
On to B2, for which the Km in the data set “purified protein” was determined as 355 µM.

B3: M3H E1/E2 (dsDNA)
DNA 1: CATACCATATGTCTTTTATCATCTGTCCTT
DNA 2: AAGGACAGATGATAAAAGACATATGGTATG
As for B3, the binding result with Trx-PIF4 [1] is “binds”.

B4: M3H E3 (dsDNA)
DNA 1: CAATGTTAAAGACACATGAACGTTGGGATA
DNA 2: TATCCCAACGTTCATGTGTCTTTAACATTG
Take B4: the binding result with Trx-PIF4 [2] is reported as “binds”.
